Source: patent US20100143371A1 (published 2010)

T1: endogenous Etk of NSR cells (mouse, UniProt P97504 1-651)
T1 sequence (looked up): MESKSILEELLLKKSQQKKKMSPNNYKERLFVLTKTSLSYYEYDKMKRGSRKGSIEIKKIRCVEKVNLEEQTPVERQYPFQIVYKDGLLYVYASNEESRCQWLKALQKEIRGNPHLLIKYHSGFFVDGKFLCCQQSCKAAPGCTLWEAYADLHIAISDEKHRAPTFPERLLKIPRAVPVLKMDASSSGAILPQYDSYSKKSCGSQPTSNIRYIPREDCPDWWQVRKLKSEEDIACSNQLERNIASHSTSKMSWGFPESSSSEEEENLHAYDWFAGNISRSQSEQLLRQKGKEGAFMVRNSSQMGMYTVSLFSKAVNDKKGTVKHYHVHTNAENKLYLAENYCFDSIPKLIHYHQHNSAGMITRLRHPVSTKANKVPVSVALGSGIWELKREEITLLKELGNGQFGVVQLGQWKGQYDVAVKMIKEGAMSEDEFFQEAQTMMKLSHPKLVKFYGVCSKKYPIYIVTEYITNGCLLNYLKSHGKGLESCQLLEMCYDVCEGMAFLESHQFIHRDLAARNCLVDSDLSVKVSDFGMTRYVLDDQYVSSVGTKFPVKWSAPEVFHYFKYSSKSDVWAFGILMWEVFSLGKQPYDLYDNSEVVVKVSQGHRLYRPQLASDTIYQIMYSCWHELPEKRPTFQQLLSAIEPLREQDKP


Legend:
GST-Etk kinase domain [1] = target: T2, GST-Etk kinase domain (human, UniProt P51813 417-675); test: ELISA, purified domain antibody on immobilised GST-Etk, anti-Myc-HRP detection
T2 construct: Soluble fusion protein expressed in SF21 cells by baculovirus, purified on glutathione beads; also called recombinant Etk; not shown: Glutathione-S-transferase (GST) fusion partner of the pBac vector (Pharmingen)
T2 sequence (P51813 417-675): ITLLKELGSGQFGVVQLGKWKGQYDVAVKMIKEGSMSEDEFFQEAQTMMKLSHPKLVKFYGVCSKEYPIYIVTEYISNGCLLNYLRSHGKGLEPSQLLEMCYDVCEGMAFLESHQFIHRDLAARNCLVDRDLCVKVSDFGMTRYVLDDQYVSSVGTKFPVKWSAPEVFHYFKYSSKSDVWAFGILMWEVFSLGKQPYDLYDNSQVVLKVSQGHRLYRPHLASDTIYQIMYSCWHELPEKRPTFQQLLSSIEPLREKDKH
Procedure: Quantitative Etk binding assay. Various concentrations of purified domain antibodies were added into a Maxi-sorp 96 well microtiter plate coated with 100 μl/well of 1 μg/ml GST-Etk and incubated for 1 h at RT. The plate was washed 3 times with PBST and then incubated with 100 μl/well of anti-Myc-HRP conjugate (1:5000 dilution) for 1 h at RT. The plate was washed 5 times, TMB peroxidase substrate was added and the absorbance at 450 nm was measured.
The antibody concentration required for 50% of maximum binding to Etk was 5 nM and 8 nM for L9 and L11, respectively, and approximately 20 nM for L5, L7, L12 and L15. […] Consistent with the binding data, all 6 domain antibodies blocked Etk enzymatic activity dose-dependently, as indicated by the reduction in the ability of recombinant Etk to phosphorylate the substrate, polyEY, in the presence of the domain antibodies (FIG. 2C).

GST-Etk kinase domain [2] = target: T2, GST-Etk kinase domain; test: cell-based or functional assay
[3] = target: T1, endogenous Etk of NSR cells; test: cell-based or functional assay
[4] = target: T1, endogenous Etk of NSR cells; test: co-immunoprecipitation from NSR cell lysate (protein L or anti-Etk), western blot
Procedure: Western immunoblotting and immunoprecipitation. Cells from a 150 mm dish were harvested in 1 ml lysis buffer containing 25 mM Tris-HCl pH 7.4, 2 mM sodium orthovanadate, 0.5 mM EDTA, 10 mM NaF, 10 mM sodium pyrophosphate, 25 mM NaCl and 1% Tx-100 supplemented with 1:1000 dilution of protease inhibitor cocktail. Cells were frozen and thawed twice, centrifuged and supernatant was collected. Samples of 50 μg protein extract were resolved by SDS-PAGE under reducing conditions, and transferred onto nitrocellulose membrane for western immunoblotting with the indicated antibodies. For immunoprecipitation, 0.5 mg of protein extracts were incubated with either protein L beads or anti-Etk antibodies coupled to protein A bead overnight at 4° C. The immunocomplex was washed 4 times with PBST and twice with 50 mM Hepes, pH 7.5, electrophored on an SDS-polyacrylamide gel under reducing conditions, and transferred onto nitrocellulose membrane for western immunoblotting with the indicated antibodies. In addition, the immunocomplex was also used as the source for enzyme (Etk kinase) in the in vitro kinase activity and autophosphorylation assays described below.
This was further confirmed when the cell lysate was immunoprecipitated with an anti-Etk antibody followed by blotting with an anti-c-Myc antibodies (FIG. 3C).

Binder | EC50 (GST-Etk kinase domain [1]) [nM] | domain antibody concentration required to achieve 50% inhibition of Etk kinase activity (polyEY substrate, ELISA-based in vitro kinase assay) (GST-Etk kinase domain [2]) [nM] | in vitro autophosphorylation of immunoprecipitated Etk, percent of the wild-type enzyme (from NSR cells) activity retained [3] [%] | in vitro kinase assay of Etk/intrabody immunocomplexes on polyEY, percent of activity of Etk derived from NSR cells [3] [%] | binding result [4]
L5 soluble single domain antibody (antibody, V domains shown, Single human kappa light chain variable domain (domain antibody), expressed from pDOM5 in E. coli BL21, purified on protein L, about 15 kDa; the tie to L5 rests on the order of the list and the numbering (CDRs 4, 6, 8 follow 2); not shown: c-Myc tag (detected with anti-Myc-HRP)) VL: DIQMTQSPSSLSASVGDRVTITCRASQGIKMKLNWYQQKPGKAPKLLIYNTSHLQSGVPSRFSGSGSGTDFTLTISSLQPEDFATYYCQQHKTRPDTFGQGTKVEIKR | ~20 | ~20 | – | – | –
K5 intrabody (L5 expressed from pcDNA3.1-L5 in NSR cells) (antibody, V domains shown, not shown: small tags and cut ends) VL: DIQMTQSPSSLSASVGDRVTITCRASQGIKMKLNWYQQKPGKAPKLLIYNTSHLQSGVPSRFSGSGSGTDFTLTISSLQPEDFATYYCQQHKTRPDTFGQGTKVEIKR | – | – | ~49 | ~25 | –
L9 soluble single domain antibody (antibody, V domains shown, Single human kappa light chain variable domain, from pDOM5 in E. coli BL21, protein L purified; not shown: c-Myc tag (detected with anti-Myc-HRP)) VL: DIQMTQSPSSLSASVGDRVTITCRASQAIKNKLGWYQQKPGKAPKLLIYKASYLQSGVPSRFSGSGSGTDFTLTISSLQPEDFATYYCQQMKSRPNTFGQGTKVEIKR | 5 | ~20 | – | – | –
L15 soluble single domain antibody (antibody, V domains shown, Single human kappa light chain variable domain, from pDOM5 in E. coli BL21, protein L purified; not shown: c-Myc tag (detected with anti-Myc-HRP)) VL: DIQMTQSPSSLSASVGDRVTITCRASQNIKTKLNWYQQKPGKAPKLLIYRVSTLQSGVPSRFSGSGSGTDFTLTISSLQPEDFATYYCQQTKKRPFTFGQGTKVEIER | ~20 | – | – | – | –
K15 intrabody (L15 expressed from pcDNA3.1-L15 in NSR cells) (antibody, V domains shown, band of 12 kDa; not shown: c-Myc tag (detected with anti-c-Myc antibody)) VL: DIQMTQSPSSLSASVGDRVTITCRASQNIKTKLNWYQQKPGKAPKLLIYRVSTLQSGVPSRFSGSGSGTDFTLTISSLQPEDFATYYCQQTKKRPFTFGQGTKVEIER | – | – | – | – | no binding
K9 intrabody (L9 expressed from pcDNA3.1-L9 in NSR cells) (antibody, V domains shown, not shown: small tags and cut ends) VL: DIQMTQSPSSLSASVGDRVTITCRASQAIKNKLGWYQQKPGKAPKLLIYKASYLQSGVPSRFSGSGSGTDFTLTISSLQPEDFATYYCQQMKSRPNTFGQGTKVEIKR | – | – | ~38 | ~25 | –
K7 intrabody (L7 expressed from pcDNA3.1-L7 in NSR cells) (antibody, V domains shown, not shown: small tags and cut ends) VL: DIQMTQSPSSLSASVGDRVTITCRASQRIFTRLEWYQQKPGKAPMLLIYNVSHLQSGVPSRFSGSGSGTDFTLTISSLQPEDFATYYCQQTEIIPITFGQGTKVEIKQ | – | – | ~37 | ~25 | –
L11 soluble single domain antibody (antibody, V domains shown, Tie to L11 rests on list order and numbering; not shown: c-Myc tag (detected with anti-Myc-HRP)) VL: DIQMTQSPSSLSASVGDRVTITCRASQWIFTELAWYQQKPGKAPKLLIYNASYLQSGVPSRFSGSGSGTDFTLTISSLQPEDFATYYCQQTFTPPITFGQGTKVEIKR | 8 | ~40 | – | – | –
L7 soluble single domain antibody (antibody, V domains shown, Single human kappa light chain variable domain, from pDOM5 in E. coli BL21, protein L purified; not shown: c-Myc tag (detected with anti-Myc-HRP)) VL: DIQMTQSPSSLSASVGDRVTITCRASQRIFTRLEWYQQKPGKAPMLLIYNVSHLQSGVPSRFSGSGSGTDFTLTISSLQPEDFATYYCQQTEIIPITFGQGTKVEIKQ | ~20 | ~20 | – | – | –
L12 soluble single domain antibody (antibody, V domains shown, Single human kappa light chain variable domain, from pDOM5 in E. coli BL21, protein L purified; not shown: c-Myc tag (detected with anti-Myc-HRP)) VL: DIQMTQSPSSLSASVGDRVTITCRASQWIFDRLHWYQQKPGKAPTLLIYNSSTLQSGVPSRFSGSGSGTDFTLTISSLQPEDFATYYCQQTKSRPSTFGQGTKVEIKR | ~20 | ~20 | – | – | –
K11 intrabody (L11 expressed from pcDNA3.1-L11 in NSR cells) (antibody, V domains shown, not shown: small tags and cut ends) VL: DIQMTQSPSSLSASVGDRVTITCRASQWIFTELAWYQQKPGKAPKLLIYNASYLQSGVPSRFSGSGSGTDFTLTISSLQPEDFATYYCQQTFTPPITFGQGTKVEIKR | – | – | ~30 | ~25 | –
